# Measurements as given in the nanobody polyreactivity screen of Harvey et al. (2022).
# Test: yeast display, Sf9 membrane polyspecificity reagent, FACS + sequencing; frameworks hold sequencing errors
# Outline: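 Genes from sorted yeast were amplified by colony PCR, read by MiSeq 2 × 250 sequencing and filtered on CDR length. These cells carried a synthetic nanobody library in Saccharomyces cerevisiae BJ5465 and were sorted by FACS into low and high (top ~1%) gates on anti-HA and streptavidin fluorescence. Polyreactivity is labelled according to the gate of origin.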
row,Sequence,polyreactivity (PSR sort gate)
1,QVQLVESGGGLVQAGGSLRLSCAASGNTFWSYAMGWYRQAPGKERELVAAITQRGGSTYYADSVKGRFTISRDNAKNNVDLQMNSLKPEDTAVYYCAADTYYKGDYWGQGTQVTVSS,high polyreactivity
2,QVQLVESGGGLVQAGGSLRLSCASSGFTFHSYAMGWYRQAPGKERELVAAISTGGTRTYYADSVKGRFTISRDNAKNTVYLQMNSLKTEDTAVYYCAADLYRGVRIYSKYDSWGQGTQVTVSS,high polyreactivity
3,QVQLVESGGGLVQAGGSLRLSCAASGRTYGGYAMGWYRQAPGKERELVAVINWRGGSTYYADSVKGRFTISRDNAKHTVYLQMNILKPEDTAVYYCNKVSLRTQSAQFHYWGQGTQVTVSS,high polyreactivity
4,QVQLVESGGCLVQAGGSLRLSCAASGSTLRSHAMGWYRQAPGKERELVASISAGGSTSYADSVKGRFTISRDNAKNTVYRQMNSLKPEDTAVYYCAADNSVGSYDYWGQGTEVTVSS,low polyreactivity
5,QVQLVESGGGLVQAGGSLRLSCAASGRTSYYNTMGWYRPAPGKERELVAASTGRGDSTYYADSVKGRFTISRDNAKKTGYLQMNSLKPEDTAVYYCAADELHLLYRVSKFVDYNHWGQGTQVTVSS,low polyreactivity
6,QVQLVESGGGLVQAGGSLRLSCAASGNTFYVNVMGWYRQAPGKEREFVAAISTRGVSTSYADSVKGRFTISRDNAKNTVYLQMNSLKPEDTAVYYCAASFRRPQPKGTTYGYWGQGTQVTVSS,high polyreactivity
7,QVQLVESGGGLVQAGGSLRLSCAASGSIFRTYVMGWYRQAPGKERELVATIDSTSGSTYYADSVKGRFTISRDNAKNTVYLQMNSLKPEDTAVYYCNVLVYYYYVVKSTYRWYDYWGQGTQVTVSS,high polyreactivity
8,QVQLVESGGGLVQAGGSLRLSCAASGSIFYENTMGWYRQAPGKERELVASISGGGSTYADSVKGRFTISRDNAKHTVYLQMNSLKPEDTAVYYCNADSSTEYDYWGQGTQVTVSA,low polyreactivity
9,QVQLVESGGGLVHAGGSLRLSCAASGLTFDWYTMGWYRQAPGKERELVATINSGGSTDYADSVKGRFTISRDNAKNTVYLQMNSLKPEDTAVYYCNAEYGYSGVGDDYWGQGTQVTVSS,low polyreactivity
10,QVQLVESGGGLVEAGGSLRLSCAASGSIFAVNTMGWYRKAPGKERELVASITRGGSTNYADSVKGRFAISRDNAKKSVYLQMNSQKPEDSAVYYCAARPTWWYDYWGQGNQVTVSS,high polyreactivity
11,QVQLVESGGGLVQAGGSLRLSCAAYGSIFALYAMGWYRPAPGKERELVARISSGGSTYYADSVKGRFTISRDNAKNTVYLQMNSLKPEDTAVYYCARYHKTHAVLRYDYWGQGTQVTVSS,low polyreactivity
12,QVQLVESGGGLVQAGGSLRLSCAASGFIFNVNAMGWYRQAPGKERELVAAITGGGGSTYYADSVKGRFTISRDNAKNTVYLQMNSLKPEDTAVYYCARGRTIRSSRTGGSWGQGTQVTVSS,high polyreactivity
13,QVQLVESGGGLVQAGGSLRLSCAASGRTFQYYAMGWYRQAPGKERELVATISYSGGSTSYADSVKGRFTISRDNAKNTVYLQMNSLKPEDTAVYYCAADYYYGDALSPSYPHWDFYYWGQGTQVTVSS,low polyreactivity
14,QVQLVESGGGLVQAGGSLRLSCAASGRILYRYAMGWYRQATGKERELVAAISWSGGSTYYADSVKGRFTISRDNAKNSVYLQMNSLKPEDTAVYYCAARYKRAYSRDYWGQGTQVTVSS,high polyreactivity
15,QVQLVESGGGLVQAGGSLRLSCAASGSIFEVNAMGWYRQAPGKERELVAAISCSGGSTYYADSVKGRFTISRDNAKNTVYLQMNSLKPEDTAVYYCAARPAGYSGRKLYYWGQGTQVTVSS,low polyreactivity
16,QVQLVESGGGLVQAGGSLRLSCAASGSTFFNYAMGWYRQAPGKERELVAAITGSGGRTYYADSVKGRFTISRDNAKNTVYLQMNSLKPEDTAVYYCAASATYDPHDYWGQGTQVTVSS,high polyreactivity
17,QVHLVESGGGLVQAGGSLRLSCAASGRNFGYYARGWYRQAPVKERELVAAIDSSGGDTYYADSVKGRFTISRDNAKNSVYVQMNSLKPEDTAVFYCAAEYVAQAGYGVDYWGQGTEVTVSS,low polyreactivity
18,QVQLVESGGGLVQAGGILRLSCAASGSTFIYNAMGLYRQAPGKEREFVASISASGGSTRYADSVKGRFTISRDNAKNTVYLQMNSLKQEDTAVYYCAKLLYLGRWRFPAGYNHWGQGTQVTVSS,high polyreactivity
19,QVQLEESRGGLVQAGGSLRLSCAASGITFYTYAMGWYRQAPGKETELVAAITSRTGSTYYADSVKGRFTISRDNAKNTVYLQMNSLKPEDTAVYDCAADRTRGRDGSDYWGQGTQVTVSS,low polyreactivity
20,QVQLVESGGGLVQAGGSLRLSCAASGSIFRSYAMGWYRQAPGKERELVAAIRSDGRTNYADSVKGRFTISRDNAKNTVYLQMNSLKPEDTAVYYCAAKAYYSYWRSMDYWGQGTQVTVSS,low polyreactivity
21,QVQLVESGGGLVQAGGSLRLSCAASGRIFPRYAMGWYRQAPGKERELVATISSGGSTYYADSVKGRFTISRDNAKNTVYLQMNSLKPEDTAVYYCAARKRPYTVINGMDYWGQGTQVTVSS,low polyreactivity
22,QVQLVESGGGLVQAGGSLRLSCAASGRTFFGNAKGWYRQAPGKERELVASISTRGGSTYYADSVKGRFTISRDNAKNTVYLQMNSLKPEDTAVYYCAKRGRDRRIYGYWGQGTQVTVSS,high polyreactivity

row,Sequence,polyreactivity (PSR sort gate)
1,QVQLVESGGGLVQAVGSLRLSFAASGFTFWYYPMGWYRQAPGKERELLAAITSSGGSTYYADSEKGRFTISRDYAKITVYLQMNSLKPEDTAVYYCAAGAPYRYYYCGQGTQVTVSS,high polyreactivity
2,QVQLVESGGGLVQAGGRLRLSCAASGGIFRRNAMGWYRPAPGKERELVAAISRSGGRTYYADSVKGRFTISRDNAKTSVYLQMNSLKPEDTAVYYCNADYGTRAGVDYWGQGTQVTVSS,low polyreactivity
3,QVQLVESGGGLVQAGGSLRLSCAASGRIFYSYAMGWYRQAPGKERELVAAINSGDRTNYADSVKGRFTISRDNAKNTVYLQMNSLKPEDTAVYYCATDDYPWRRHPWYAGYDSWGQGTQVTVSS,low polyreactivity
4,QVQLVESGAGLVQAGGSLRLSCAASGFIFNRYAMGWYRQAPGKERELVAAIRGSGGSTYADSVKGRFTISRDNAKNTVYLQMNSLKPEDTAVYYCNKERPRRNGQVARYDYWGQGTQVTVSS,low polyreactivity
5,QVQLVESGGGLVQAGGSLRLSCAASGGIFGTNDLGWSRQAPGKERELVAAITSDSGSTYYADSVKGRFTISRDNAKNTVYLQMTSLKPEDTAVYYCAAEDGPWFYRYGYWGQGTQVTVSS,low polyreactivity
6,QVQLVESGGGLVQAGCSGSLSCAASGRIFQRNSMGWYRQAPGKEREFVAAITKSGGGTYADSVKGRFTISRDNAKNTVYLQMNSLKPEDTAVYYCNVVPVWRPYSLINWQKHFGYWGQGTQVTVSS,high polyreactivity
7,QVQLVESGGGLDQAGGSLRLICAASGITFFPYAMVWYRQAPGKEKELVAAISSGSSTYYADSVKGRFTISRDNAKNTVYLQMNSLKPEDTAVYYCATRRDLHDRYEYDYWGQGTQVTVSS,low polyreactivity
8,QVQLVESGGGLVQAGGSLRLSCAASGLIFRPYAMGWYRQAPGKERELVAAITSGGSTDYADSVKGRFTISRDNAKNTVYLQMNSLKPQDTAVYYCNADTIPDGEDRYVYWGQGTQVTVSS,low polyreactivity
9,QVQLEESGGGLVQAGGSLRLSCAASGSIFGLYAMGWYRQAPGKERELVAAISARGGSTYYADSVKGRFTISRDNAKNTVYLQMNSLKPEDTAVNYCATRQVSAYSYIYDYWGQGTQVTVSS,high polyreactivity
10,QVQLVESGGGLVQAGGSLRLSCAAYGRIFYYNRMGWYRQAPGKERELVADISFSDGSTYYADSVKGRFTISRDIAKNTVYLQMNSLKPEDTAVYYCAAVIGYDYDYWGQVTQVTVSS,low polyreactivity
11,QVQLVESGGGLVQAGGSLRLSCAASGRIFVSYTMGWYRQAPGKERELVAAIRGTGSTYYADSVKGRFTISRDNAKNTVYLQMNSLKPEDTAVYYCNADYLRWDIWYWHGYDYWGQGTQVTVSS,high polyreactivity
12,LVQLVESGGGLVQAGGSLRLSFAASGLIFGRYAMGWYTQAPGKERELVAAISSSGVRTYYADSVKGRFTLSRDNAKNTVYLQLNSLKPEDTAVYYCAAAYWSSPEDTVIKRYYWGQGTQVTVSS,high polyreactivity
13,QVQLVESGGGLVQAGGSLRLSCAASGRTFWRYAMGWYRQAPGKERELVARISSGGSTYYADSVKGRFTISRDNAKNTVYLQMNSLKPEDTAVYYCAVLSRHRRVPWYRYNYWGQGTQVTVSS,low polyreactivity
14,QVQLVESGGGFVQAGGTLRLSCAASGFTFGYNAMGWYRHAPGKERELVAAISFSDGITYYADSVKRRFTISRDNAKNNVYLQMNSLKPEDTAVYYCAADLYFEYEYWGQGTQVTVSS,high polyreactivity
15,QVHLVESGGGLVQAGGCLRLICAASGSIFVPYAMGWYRQAPVKERELVAAISRGGDTNYADSVKGRFTISRDNAKNTVYLQMKSLKPEDTAVYYCAKSGYGNRGFDYWGQGTQVSVSS,low polyreactivity
16,QFQLVDSGGGLVQAGGSLRLSCAASGSTFGYYAMGWYRQATGKERELVAAISWRGGSTSYADSVKGRFTISRDNAKNTVYLQMNSLIPEDTAVYLCAAGGDINKYGRQYRYDYWGQGTQVTVSS,high polyreactivity
17,QVQLVESGGGLVQAGGSLRLSCAASGSIFGLYAMGWYRQAPGKERELVAAITASDGSTYYADSVKGRFTISRDNAKNTVYLQMNSLKPEDTADYYCNADAYSGYFLFDYWGQGTQVTVSS,low polyreactivity
18,QVQLVDTGRGLVQAGGSLRLSCAPSGRTFGYNAMGWYRQAPGKERELVAAINWSGASTYYADSVKWRFTISRDNAKNTVYLQMKSLKPEDTAVYYCAADYSYIYGFDYWGQGTQVTVST,low polyreactivity
19,QVQLVESGGGLVQAGGSLRLSCAASGRILDWYAMGWYRQAPGTERELVASIYSTGGSSYYADSVKGRFTISRDHAKNTVYLQMNRLKPDDTAVYYCAAVIRSQDGRGYDYWGHGTQVTVSS,high polyreactivity
20,QVQLVESGGGLVQEGRSLRLSCAASGRIFCFNVMGWYRQAPGKERELVATISGRTGSTYYADSVKGRFTISRDNAKNTVYLQMNSLKPEVTAVYYCNAVRTVNDYHYDYWGQVTQVTVSS,high polyreactivity
21,QVQLVESGGGLVQAGGSLRLSCAASGFTFYWYAMGWYRQAPGKERELVAAISTSDTSTYADSVKGRFTISRDNAKNTVYLQMNSLKPEDTAVYYCNRRQYYYYGTSRYNYWGQGTQVTVSS,low polyreactivity
